Paper PMC4344121
Where no end group is shown, it is not given here. The star is where a group is joined. lipoyl = O=C(CCCC[C@@H]1CCSS1)*

Biological target: T1, N-terminally truncated human SIRT4 (33-314) (human) (UniProt Q9Y6E7)
T1 sequence: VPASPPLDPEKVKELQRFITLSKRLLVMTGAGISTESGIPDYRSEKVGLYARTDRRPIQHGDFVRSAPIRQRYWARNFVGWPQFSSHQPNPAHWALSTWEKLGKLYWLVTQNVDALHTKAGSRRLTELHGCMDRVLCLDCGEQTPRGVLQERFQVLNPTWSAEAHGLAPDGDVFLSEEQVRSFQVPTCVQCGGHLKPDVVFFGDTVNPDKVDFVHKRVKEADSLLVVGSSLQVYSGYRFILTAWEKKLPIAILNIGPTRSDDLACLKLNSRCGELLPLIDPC

B1: DLAT K259 Lipoyl peptide (peptide)
peptide: EIETDK(lipoyl)ATIGW
  Km of delipoylation, steady-state kinetics (HPLC-based assay, SIRT4 5 μM): 239 µM
